Assays:
[1] = test system: T1, YefMsl-YoeBsl antitoxin (untagged YefM of natural complex);YoeB-His6sl (toxin) (Streptomyces lividans 1326?;Streptomyces lividans 1326?), ORF:ca022027+Q9Z4V8; test: EMSA
T1 sequence 1: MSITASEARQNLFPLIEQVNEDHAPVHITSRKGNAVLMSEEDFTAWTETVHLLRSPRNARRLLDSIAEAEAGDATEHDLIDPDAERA
T1 sequence 2: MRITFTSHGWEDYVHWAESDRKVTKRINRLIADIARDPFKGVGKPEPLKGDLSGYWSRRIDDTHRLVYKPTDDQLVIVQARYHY

[2] = test system: T2, YefM-His6sl (antitoxin);YoeB-His6sl (toxin) (Streptomyces lividans 1326?;Streptomyces lividans 1326?), ORF:ca022027+Q9Z4V8; test: EMSA
T2 sequence 1: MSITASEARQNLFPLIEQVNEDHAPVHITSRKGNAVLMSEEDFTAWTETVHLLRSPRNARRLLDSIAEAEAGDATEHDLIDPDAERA
T2 sequence 2: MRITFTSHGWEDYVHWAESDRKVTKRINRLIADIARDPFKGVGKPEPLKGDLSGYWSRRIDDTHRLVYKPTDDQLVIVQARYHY

[3] = target: T3, S. lividans antitoxin YefM-His6sl (Streptomyces lividans, UniProt Q9Z4V7 1-87); test: native gel or EMSA; conditions: both partners purified
T3 construct: YefMsl, putative antitoxin of the yefM/yoeBsl operon of Streptomyces lividans 1326; identical to S. coelicolor SCO2235 (YefMsc); 9.7 kDa; Cloned with primers LS-005/LS-022 between NdeI and XhoI of pET22b; also called YefMsl; source: E. coli BL21 (DE3), pET22b-Anti, purified (NTA-Ni, dialysis); not shown: His6, C-terminal, kept
T3 sequence (looked up): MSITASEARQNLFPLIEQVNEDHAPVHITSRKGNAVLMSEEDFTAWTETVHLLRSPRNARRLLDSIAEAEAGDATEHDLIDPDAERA

Row | Molecule | binding [1] | binding [2] | binding result [3]
1 | TTTTTTCATATGACCAGTGCCTCCCTTCCTCGGCTGGTACAAGATATCGTACGAGTCTGGGACGGTCCACCGGAAAGCGGGAGCGGTACGTCCCGGCGCCCGCACGCCGTTCCCCGGCTACGCTCAGCCCGTACGACCTTGATCCGACCGGGCCCACGTGCCCCGCAGCCCGACAGGAGGCCGAGAATTCAAAAAA (double strand) [TA promoter (yefM/yoeBsl intergenic region)] | binds | binds | 
2 | S. lividans toxin YoeB-His6sl (natural protein, Streptomyces lividans, UniProt Q9Z4V8 1-84, looked up, also called YoeBsl; toxin-His6; not shown: His6, C-terminal, kept) MRITFTSHGWEDYVHWAESDRKVTKRINRLIADIARDPFKGVGKPEPLKGDLSGYWSRRIDDTHRLVYKPTDDQLVIVQARYHY |  |  | binds

— PMC3303803, “Identification of the First Functional Toxin-Antitoxin System in Streptomyces” (PLoS ONE, 2012)
